# B1: recombinant BCAS0292 (Burkholderia negatively surface-charged regulatory protein 1), His-tagged (natural protein, Burkholderia cenocepacia, UniProt B4EQ58 1-179, looked up)
# chain: MSGVRCDGLAIVDAVTLLSAYPDASRDADAPTVIDGRHIYVLRPGDAGQVGHNDNRLFAGLSPGDQLHLRETALALRAEVTVLFIRFALKDAGIVAPIEAEIRDAATPVPDGDDLLHPSCRPMKDHFWRSEVLAPGITTCTADFAVLDRDGAVSGYFRWETAIEIAGSRPDTKQPGVEP
# notes: BCAS0292 protein (Bnr1), PixA family, Burkholderia cenocepacia; calculated molecular weight 19.2 kDa; no cleavage of the tag is told; also called rBCAS0292; rBnr1; source: E. coli BL21 Star (DE3), purified (lysis in 6 M guanidine-HCl, HisPur Ni-NTA, SEC)
# Target: the molecule itself
# Assay: SEC-MALS; 800 micrograms of purified rBCAS0292 on S75 16/60 in 50 mM Tris-HCl, 150 mM NaCl, 5% glycerol, pH 7.5; DAWN MALS and Optilab rEX; reducing and oxidizing conditions
protein,measurement,value
B1,stoichiometry N,2

# From publication PMC9060813, “Protein with negative surface charge distribution, Bnr1, shows characteristics of a DNA‐mimic protein and may be involved in the adaptation of Burkholderia cenocepacia” (MicrobiologyOpen, 2022)
